Here are results for three molecules from patent US20250179143A1, “SYSTEMS AND METHODS FOR CHAPERONE-MEDIATED LIGAND EXCHANGE ON MHC-I AND MHC-RELATED MOLECULES USING CHICKEN TAPBPR” (priority 2022, published 2025).

One data set addresses HLA-B*37:01 (Homo sapiens, UniProt P01889, A329T/A93T/A95T/C349S/D138N/D201E/D98Y/E176V/E187T/E204Q/E69T/G107R/H137Y/K202T/L119I/N104T/N87E/Q94N/R106L/R155S/R180D/S101D/S121R/V306I/Y123S/Y140F/Y33H/Y91S). The experiment in a line: SAB screen. The following applies: HLA-B*37:01 beads; FIG. 41. In kind it is binding.
Data set [1] is described as follows: DSF thermal stability of chaperone proteins. The following applies: DSF of the recombinant chaperone protein.
Another data set concerns the target HLA-A*01:01 (Homo sapiens, UniProt P04439, A114D/A174V/A182V/D101N/D185E/E176A/E190D/L180R/Q94H/R68K/S129P/T187R/V100A/V91M/W191G). In words: Fluorescence polarization (FP) peptide exchange. The settings on record: HLA-A*01:01, chaperone at 5 μM. (In general: Polarisation of emitted light reports the rotation of a fluorescent probe.)
Data set [2] concerns the target T1, HLA-A*02:01 (Homo sapiens, UniProt P04439, D140Y/D185E/D98H/E176V/E277Q/G131W/G231S/I119V/I121R/I166T/I218V/L300P/L318F/N151K/N90K/P208A/P217A/Q86G/Q94H/R138H/R169H/T345S). The experiment in a line: SPR. The following applies: peptide-deficient (empty) HLA-A*02:01.
A further data set deals with T2, HLA-A*02:06 (Homo sapiens, UniProt P04439, D140Y/D185E/D98H/E176V/E277Q/F33Y/G131W/G231S/I119V/I121R/I166T/I218V/L300P/L318F/N151K/N90K/P208A/P217A/Q86G/Q94H/R138H/R169H/T345S).
T2 construct: made in house
The experiment in a line: Fluorescence polarization (FP) peptide exchange. Format: biochemical. The following applies: pHLA-A*02:06.

Data set [3] addresses T1, HLA-A*02:01. The experiment in a line: Fluorescence polarization (FP) peptide exchange. The following applies: HLA-A*02:01/KILGFVFβFV, […].
The next data set has as its target HLA-B*08:01 (Homo sapiens, UniProt P01889, A93T/A95T/D138N/E176V/E187T/K202T/Q94N/R180D/S35A/V36M/Y33D/Y91F). The experiment in a line: Fluorescence polarization (FP) peptide exchange. The settings on record: based on DSF or FP assays.
The target in data set [4] is T1, HLA-A*02:01. The experiment in a line: Native gel shift assay (EMSA). Format: binding. The settings on record: UV-irradiated HLA-A*02:01/KILGFVFJV, 1:1 molar ratio. How it is done:
For native gel shift assays, purified MHC-I molecules refolded with photo-labeled peptides (pMHC-I) and TAPBPR proteins were loaded into polyacrylamide gels alone at 7 μM concentration and as mixtures. For the mixtures, 1:1 molar ratio of pMHC-I and TAPBPR samples at 7 μM each were prepared and incubated at room temperature (RT) for 1 hour. The samples were then UV-irradiated for another hour at 365 nm and were run at 90 V for 5.5 hours on a 12% polyacrylamide gel. Staining was performed using InstantBlue (Novus Biologicals).
Native gel shift assay. Purified MHC-I molecules refolded with photo-labeled peptides (pMHC-I) and TAPBPR proteins were loaded into polyacrylamide gels alone at 7 μM concentration and as mixtures. For the mixtures, a 1:1 molar ratio of pMHC-I and TAPBPR samples at 7 μM each was prepared and incubated at RT for 1 hour. The samples were then UV-irradiated for another hour at 365 nm and were run at 90 V for 5.5 hours on a 12% polyacrylamide gel. Staining was performed using InstantBlue (Novus Biologicals).

Data set [5] has as its system 96 different HLA allotypes on single antigen HLA class I beads. The experiment in a line: SAB screen, all beads. The settings on record: across HLA allotypes; FIG. 23e. In kind it is binding, human. Here is the method:
For the Single Antigen Bead Screen, 7 μM of TAPBPR in tetramers were mixed with 4 μL of the LABScreen single antigen HLA-I bead suspension (OneLambda, Inc., CA, USA) in a 96-well plate. The samples were incubated for 1 hour, 550 rpm at RT, washed four times in Wash Buffer (OneLambda, Inc., CA, USA) to remove excess of tetramers and re-suspended in 1×PBS buffer (pH 7.2). For the negative controls, beads were incubated with the Anti-HLA Class I antibody W6/32 (Abcam, ab22432) for 30 min, 550 rpm at RT and washed three times prior tetramer addition. To test the levels of peptide loaded MHC-I molecules on the beads, Applicants used the same W6/32 antibody and the secondary anti-mouse PE-conjugated antibody (Abcam, ab97024) for detection. The levels of TAPBPR bound to the beads were measured using the Luminex 100 Liquid Array Analyzer System and the results were analyzed in GraphPad Prism v7.
SABs screen. 7 μM of TAPBPR in tetramers were mixed with 4 μL of the LABScreen single antigen HLA-I bead suspension (OneLambda, Inc., CA, USA) in a 96-well plate. […] The levels of TAPBPR bound to the beads were measured using the Luminex 100 Liquid Array Analyzer System and the results were analyzed in GraphPad Prism v9.

As usually defined, the Tm is the temperature at the midpoint of the melting transition. The term Kd denotes the equilibrium constant for the complex coming apart. A low value points to a tighter complex.

B1: chTapasin: recombinant luminal domain of chicken Tapasin, a homolog of TAPBPR (protein)
chain: QFRVEDAASPPPPPAPVRCALLEGVGRGGGLPGGGNARPALLRFGGDAETPPEPGPEPEVTFNVSDPWGTLTPLGVPPRTPPSCELNPTNPQTGSDPWSRPLHPDARSPPTAGGQWWVAAVGTPQYGVTALLQGGMGTEGTITAAVALAVLTHTPTLRARVGSPIHLHCAFAAPPSSFVLEWRHQNRGAGRVLLAYDSSTARAPRAHPGAELLLGTRDGDGVTAVTLRLARPSPGDEGTYICSVFLPHGHTQTVLQLHVFEPPKVTLSPKNLVVAPGTSAELRCHVSGFYPLDVTVTWQRRAGGSGTSQSPRDTVMDSWTSGHRQAADGTYSRTAAARLIPARPQHHGDIYSCVVTHTALAKPMRVSVRLLLAGTEGPHLEDIT
As to B1, the “binding of Tapasin tetramers (MFI)” value with HLA-B*37:01 is listed as “tight binding”. Besides, in [1], the Tm was found to be 58 °C.

B2: hTAPBPR^KRQ: human TAPBPR mutant R105K, K211R, R270Q (protein)
chain: KPHPAEGQWRAVDVVLDCFLAKDGAHRGALASSEDRARASLVLKQVPVLDDGSLEDFTDFQGGTLAQDDPPIIFEASVDLVQIPQAEALLHADCSGKEVTCEISKYFLQMTETTVKTAAWFMANMQVSGGGPSISLVMKTPRVTKNEALWHPTLNLPLSPQGTVRTAVEFQVMTQTQSLSFLLGSSASLDCGFSMAPGLDLISVEWRLQHRGRGQLVYSWTAGQGQAVRKGATLEPAQLGMARDASLTLPGLTIQDEGTYICQITTSLYQAQQIIQLNIQASPKVRLSLANEALLPTLICDIAGYYPLDVVVTWTREELGGSPAQVSGASFSSLRQSVAGTYSISSSLTAEPGSAGATYTCQVTHISLEEPLGASTQVVPPERR
With B2, the “apparent rate constant kapp” value in the data set with HLA-A*01:01 amounted to 0.00013 s⁻¹. The molecule also came in with a dissociation constant (Kd) with HLA-A*02:01 [2] of 243 nM. Moreover, the Tm in [1] came out at 52.3 °C. Also, the “k2overall, fold improved compared to hTAPBPR” value in the data set with HLA-A*02:06 is recorded as “approximately 9 fold”. For the same molecule, in the data set with HLA-A*02:01 [3], the “k2overall, fold higher than hTAPBPR” value is on record as “approximately 60 fold”. The Peptide exchange result with HLA-B*08:01 is “failed to catalyze peptide exchange”.

B3: moTAPBPR: recombinant luminal domain of mouse TAPBPR, XP_030111162.1 (protein)
chain: TDPPTAPTTAERQRQPTDIILDCFLVTEDRHRGAFASSGDRERALLVLKQVPVLDDGSLEGITDFQGSTETKQDSPVIFEASVDLVQIPQAEALLHADCSGKAVTCEISKYFLQARQEATFEKAHWFISNMQVSRGGPSVSMVMKTLRDAEVGAVRHPTLNLPLSAQGTVKTQVEFQVTSETQTLNHLLGSSVSLHCSFSMAPGLDLTGVEWRLQHKGSGQLVYSWKTGQGQAKRKGATLEPEELLRAGNASLTLPNLTLKDEGNYICQISTSLYQAQQIMPLNILAPPKIQLHLANKDPLPSLVCSIAGYYPLDVGVTWIREELGGIPAQVSGASFSSLRQSTMGTYSISSTVMADPGPTGATYTCQVAHVSLEEPLTTSMRVLPNPEQRG
Take B3: the TAPBPR/MHC-I complex formation result with HLA-A*02:01 [4] is “formed a new band”. Also, the Tm in data set [1] stood at 56 °C. For the same molecule, in data set [5], the MFI ratios entry was “less than 5.8”.
